Measured values: PMC3597514

Columns and labels:
[1] = target: NbSPL6-Yc (N. benthamiana); assay: split reporter (BiFC, NanoBiT); as a5, but with tCFP alone in place of tCFP-p50-U1
[2] = target: NbSPL6-Yc (N. benthamiana); assay: split reporter (BiFC, NanoBiT); as a5, but with the non-eliciting p50-Ob-tCFP in place of tCFP-p50-U1; percent of cells as the ratio to the cells seen with tCFP-p50-U1

percent of cells with citrine fluorescence (with tCFP alone) (% of the cells) [1]: 10
percent of cells with citrine fluorescence (with p50-Ob-tCFP) (% of the cells) [2]: 13
B1: gN-Yn (receptor)
chain: MASSSSSSRWSYDVFLSFRGEDTRKTFTSHLYEVLNDKGIKTFQDDKRLEYGATIPGELCKAIEESQFAIVVFSENYATSRWCLNELVKIMECKTRFKQTVIPIFYDVDPSHVRNQKESFAKAFEEHETKYKDDVEGIQRWRIALNEAANLKGSCDNRDKTDADCIRQIVDQISSKLCKISLSYLQNIVGIDTHLEKIESLLEIGINGVRIMGIWGMGGVGKTTIARAIFDTLLGRMDSSYQFDGACFLKDIKENKRGMHSLQNALLSELLREKANYNNEEDGKHQMASRLRSKKVLIVLDDIDNKDHYLEYLAGDLDWFGNGSRIIITTRDKHLIEKNDIIYEVTALPDHESIQLFKQHAFGKEVPNENFEKLSLEVVNYAKGLPLALKVWGSLLHNLRLTEWKSAIEHMKNNSYSGIIDKLKISYDGLEPKQQEMFLDIACFLRGEEKDYILQILESCHIGAEYGLRILIDKSLVFISEYNQVQMHDLIQDMGKYIVNFQKDPGERSRLWLAKEVEEVMSNNTGTMAMEAIWVSSYSSTLRFSNQAVKNMKRLRVFNMGRSSTHYAIDYLPNNLRCFVCTNYPWESFPSTFELKMLVHLQLRHNSLRHLWTETKHLPSLRRIDLSWSKRLTRTPDFTGMPNLEYVNLYQCSNLEEVHHSLGCCSKVIGLYLNDCKSLKRFPCVNVESLEYLGLRSCDSLEKLPEIYGRMKPEIQIHMQGSGIRELPSSIFQYKTHVTKLLLWNMKNLVALPSSICRLKSLVSLSVSGCSKLESLPEEIGDLDNLRVFDASDTLILRPPSSIIRLNKLIILMFRGFKDGVHFEFPPVAEGLHSLEYLNLSYCNLIDGGLPEEIGSLSSLKKLDLSRNNFEHLPSSIAQLGALQSLDLKDCQRLTQLPELPPELNELHVDCHMALKFIHYLVTKRKKLHRVKLDDAHNDTMYNLFAYTMFQNISSMRHDISASDSLSLTVFTGQPYPEKIPSWFHHQGWDSSVSVNLPENWYIPDKFLGFAVCYSRSLIDTTAHLIPVCDDKMSRMTQKLALSECDTESSNYSEWDIHFFFVPFAGLWDTSKANGKTPNDYGIIRLSFSGEEKMYGLRLLYKEGPEVNALLQMRENSNEPTEHSTGIRRTQYNNRTSFYELING
